# From US12104181B2, “Compositions and methods for treating viral infections targeting TRIM7” (THE BOARD OF REGENTS OF THE UNIVERSITY OF TEXAS SYSTEM, priority 2021, dated 2024)
# B1: TRIM33: human RING type E3 ligase expressed from lentiviral vector (protein, UniProt Q9UPN9 1-1127, looked up)
# E3 ubiquitin-protein ligase …: MAENKGGGEAESGGGGSGSAPVTAGAAGPAAQEAEPPLTAVLVEEEEEEGGRAGAEGGAAGPDDGGVAAASSGSAQAASSPAASVGTGVAGGAVSTPAPAPASAPAPGPSAGPPPGPPASLLDTCAVCQQSLQSRREAEPKLLPCLHSFCLRCLPEPERQLSVPIPGGSNGDIQQVGVIRCPVCRQECRQIDLVDNYFVKDTSEAPSSSDEKSEQVCTSCEDNASAVGFCVECGEWLCKTCIEAHQRVKFTKDHLIRKKEDVSESVGASGQRPVFCPVHKQEQLKLFCETCDRLTCRDCQLLEHKEHRYQFLEEAFQNQKGAIENLLAKLLEKKNYVHFAATQVQNRIKEVNETNKRVEQEIKVAIFTLINEINKKGKSLLQQLENVTKERQMKLLQQQNDITGLSRQVKHVMNFTNWAIASGSSTALLYSKRLITFQLRHILKARCDPVPAANGAIRFHCDPTFWAKNVVNLGNLVIESKPAPGYTPNVVVGQVPPGTNHISKTPGQINLAQLRLQHMQQQVYAQKHQQLQQMRMQQPPAPVPTTTTTTQQHPRQAAPQMLQQQPPRLISVQTMQRGNMNCGAFQAHQMRLAQNAARIPGIPRHSGPQYSMMQPHLQRQHSNPGHAGPFPVVSVHNTTINPTSPTTATMANANRGPTSPSVTAIELIPSVTNPENLPSLPDIPPIQLEDAGSSSLDNLLSRYISGSHLPPQPTSTMNPSPGPSALSPGSSGLSNSHTPVRPPSTSSTGSRGSCGSSGRTAEKTSLSFKSDQVKVKQEPGTEDEICSFSGGVKQEKTEDGRRSACMLSSPESSLTPPLSTNLHLESELDALASLENHVKIEPADMNESCKQSGLSSLVNGKSPIRSLMHRSARIGGDGNNKDDDPNEDWCAVCQNGGDLLCCEKCPKVFHLTCHVPTLLSFPSGDWICTFCRDIGKPEVEYDCDNLQHSKKGKTAQGLSPVDQRKCERLLLYLYCHELSIEFQEPVPASIPNYYKIIKKPMDLSTVKKKLQKKHSQHYQIPDDFVADVRLIFKNCERFNEMMKVVQVYADTQEINLKADSEVAQAGKAVALYFEDKLTEIYSDRTFAPLPEFEQEEDDGEVTEDSDEDFIQPRRKRLKSDERPVHIK
# B2: TRIM29: human RING type E3 ligase expressed from lentiviral vector (protein, UniProt Q14134 1-588, looked up)
# Tripartite motif-containing …: MEAADASRSNGSSPEARDARSPSGPSGSLENGTKADGKDAKTTNGHGGEAAEGKSLGSALKPGEGRSALFAGNEWRRPIIQFVESGDDKNSNYFSMDSMEGKRSPYAGLQLGAAKKPPVTFAEKGELRKSIFSESRKPTVSIMEPGETRRNSYPRADTGLFSRSKSGSEEVLCDSCIGNKQKAVKSCLVCQASFCELHLKPHLEGAAFRDHQLLEPIRDFEARKCPVHGKTMELFCQTDQTCICYLCMFQEHKNHSTVTVEEAKAEKETELSLQKEQLQLKIIEIEDEAEKWQKEKDRIKSFTTNEKAILEQNFRDLVRDLEKQKEEVRAALEQREQDAVDQVKVIMDALDERAKVLHEDKQTREQLHSISDSVLFLQEFGALMSNYSLPPPLPTYHVLLEGEGLGQSLGNFKDDLLNVCMRHVEKMCKADLSRNFIERNHMENGGDHRYVNNYTNSFGGEWSAPDTMKRYSMYLTPKGGVRTSYQPSSPGRFTKETTQKNFNNLYGTKGNYTSRVWEYSSSIQNSDNDLPVVQGSSSFSLKGYPSLMRSQSPKAQPQTWKSGKQTMLSHYRPFYVNKGNGIGSNEAP
# modifications: lentiviral expression
# notes: human RING type E3 ligase expressed from lentiviral vector
# B3: TRIM34: human RING type E3 ligase expressed from lentiviral vector (protein, UniProt Q9BYJ4 1-488, looked up)
# E3 ubiquitin-protein ligase …: MASKILLNVQEEVTCPICLELLTEPLSLDCGHSLCRACITVSNKEAVTSMGGKSSCPVCGISYSFEHLQANQHLANIVERLKEVKLSPDNGKKRDLCDHHGEKLLLFCKEDRKVICWLCERSQEHRGHHTVLTEEVFKECQEKLQAVLKRLKKEEEEAEKLEADIREEKTSWKYQVQTERQRIQTEFDQLRSILNNEEQRELQRLEEEEKKTLDKFAEAEDELVQQKQLVRELISDVECRSQWSTMELLQDMSGIMKWSEIWRLKKPKMVSKKLKTVFHAPDLSRMLQMFRELTAVRCYWVDVTLNSVNLNLNLVLSEDQRQVISVPIWPFQCYNYGVLGSQYFSSGKHYWEVDVSKKTAWILGVYCRTYSRHMKYVVRRCANRQNLYTKYRPLFGYWVIGLQNKCKYGVFEESLSSDPEVLTLSMAVPPCRVGVFLDYEAGIVSFFNVTSHGSLIYKFSKCCFSQPVYPYFNPWNCPAPMTLCPPSS
# B4: TRIM27: human RING type E3 ligase expressed from lentiviral vector (protein, UniProt P14373 1-513, looked up)
# Zinc finger protein RFP: MASGSVAECLQQETTCPVCLQYFAEPMMLDCGHNICCACLARCWGTAETNVSCPQCRETFPQRHMRPNRHLANVTQLVKQLRTERPSGPGGEMGVCEKHREPLKLYCEEDQMPICVVCDRSREHRGHSVLPLEEAVEGFKEQIQNQLDHLKRVKDLKKRRRAQGEQARAELLSLTQMEREKIVWEFEQLYHSLKEHEYRLLARLEELDLAIYNSINGAITQFSCNISHLSSLIAQLEEKQQQPTRELLQDIGDTLSRAERIRIPEPWITPPDLQEKIHIFAQKCLFLTESLKQFTEKMQSDMEKIQELREAQLYSVDVTLDPDTAYPSLILSDNLRQVRYSYLQQDLPDNPERFNLFPCVLGSPCFIAGRHYWEVEVGDKAKWTIGVCEDSVCRKGGVTSAPQNGFWAVSLWYGKEYWALTSPMTALPLRTPLQRVGIFLDYDAGEVSFYNVTERCHTFTFSHATFCGPVRPYFSLSYSGGKSAAPLIICPMSGIDGFSGHVGNHGHSMETSP
# modifications: lentiviral expression
# notes: as for B2
# B5: TRIM32: human RING type E3 ligase expressed from lentiviral vector (protein, UniProt Q13049 2-653, looked up)
# E3 ubiquitin-protein ligase …: AAAAASHLNLDALREVLECPICMESFTEEQLRPKLLHCGHTICRQCLEKLLASSINGVRCPFCSKITRITSLTQLTDNLTVLKIIDTAGLSEAVGLLMCRSCGRRLPRQFCRSCGLVLCEPCREADHQPPGHCTLPVKEAAEERRRDFGEKLTRLRELMGELQRRKAALEGVSKDLQARYKAVLQEYGHEERRVQDELARSRKFFTGSLAEVEKSNSQVVEEQSYLLNIAEVQAVSRCDYFLAKIKQADVALLEETADEEEPELTASLPRELTLQDVELLKVGHVGPLQIGQAVKKPRTVNVEDSWAMEATASAASTSVTFREMDMSPEEVVASPRASPAKQRGPEAASNIQQCLFLKKMGAKGSTPGMFNLPVSLYVTSQGEVLVADRGNYRIQVFTRKGFLKEIRRSPSGIDSFVLSFLGADLPNLTPLSVAMNCQGLIGVTDSYDNSLKVYTLDGHCVACHRSQLSKPWGITALPSGQFVVTDVEGGKLWCFTVDRGSGVVKYSCLCSAVRPKFVTCDAEGTVYFTQGLGLNLENRQNEHHLEGGFSIGSVGPDGQLGRQISHFFSENEDFRCIAGMCVDARGDLIVADSSRKEILHFPKGGGYSVLIREGLTCPVGIALTPKGQLLVLDCWDHCIKIYSYHLRRYSTP
# B6: TRIM24: human RING type E3 ligase expressed from lentiviral vector (protein, UniProt O15164 1-1050, looked up)
# Transcription intermediary …: MEVAVEKAVAAAAAASAAASGGPSAAPSGENEAESRQGPDSERGGEAARLNLLDTCAVCHQNIQSRAPKLLPCLHSFCQRCLPAPQRYLMLPAPMLGSAETPPPVPAPGSPVSGSSPFATQVGVIRCPVCSQECAERHIIDNFFVKDTTEVPSSTVEKSNQVCTSCEDNAEANGFCVECVEWLCKTCIRAHQRVKFTKDHTVRQKEEVSPEAVGVTSQRPVFCPFHKKEQLKLYCETCDKLTCRDCQLLEHKEHRYQFIEEAFQNQKVIIDTLITKLMEKTKYIKFTGNQIQNRIIEVNQNQKQVEQDIKVAIFTLMVEINKKGKALLHQLESLAKDHRMKLMQQQQEVAGLSKQLEHVMHFSKWAVSSGSSTALLYSKRLITYRLRHLLRARCDASPVTNNTIQFHCDPSFWAQNIINLGSLVIEDKESQPQMPKQNPVVEQNSQPPSGLSSNQLSKFPTQISLAQLRLQHMQQQVMAQRQQVQRRPAPVGLPNPRMQGPIQQPSISHQQPPPRLINFQNHSPKPNGPVLPPHPQQLRYPPNQNIPRQAIKPNPLQMAFLAQQAIKQWQISSGQGTPSTTNSTSSTPSSPTITSAAGYDGKAFGSPMIDLSSPVGGSYNLPSLPDIDCSSTIMLDNIVRKDTNIDHGQPRPPSNRTVQSPNSSVPSPGLAGPVTMTSVHPPIRSPSASSVGSRGSSGSSSKPAGADSTHKVPVVMLEPIRIKQENSGPPENYDFPVVIVKQESDEESRPQNANYPRSILTSLLLNSSQSSTSEETVLRSDAPDSTGDQPGLHQDNSSNGKSEWLDPSQKSPLHVGETRKEDDPNEDWCAVCQNGGELLCCEKCPKVFHLSCHVPTLTNFPSGEWICTFCRDLSKPEVEYDCDAPSHNSEKKKTEGLVKLTPIDKRKCERLLLFLYCHEMSLAFQDPVPLTVPDYYKIIKNPMDLSTIKKRLQEDYSMYSKPEDFVADFRLIFQNCAEFNEPDSEVANAGIKLENYFEELLKNLYPEKRFPKPEFRNESEDNKFSDDSDDDFVQPRKKRLKSIEERQLLK
# B7: TRIM26: human RING type E3 ligase expressed from lentiviral vector (protein, UniProt Q12899 1-539, looked up)
# Tripartite motif-containing …: MATSAPLRSLEEEVTCSICLDYLRDPVTIDCGHVFCRSCTTDVRPISGSRPVCPLCKKPFKKENIRPVWQLASLVENIERLKVDKGRQPGEVTREQQDAKLCERHREKLHYYCEDDGKLLCVMCRESREHRPHTAVLMEKAAQPHREKILNHLSTLRRDRDKIQGFQAKGEADILAALKKLQDQRQYIVAEFEQGHQFLREREEHLLEQLAKLEQELTEGREKFKSRGVGELARLALVISELEGKAQQPAAELMQDTRDFLNRYPRKKFWVGKPIARVVKKKTGEFSDKLLSLQRGLREFQGKLLRDLEYKTVSVTLDPQSASGYLQLSEDWKCVTYTSLYKSAYLHPQQFDCEPGVLGSKGFTWGKVYWEVEVEREGWSEDEEEGDEEEEGEEEEEEEEAGYGDGYDDWETDEDEESLGDEEEEEEEEEEEVLESCMVGVARDSVKRKGDLSLRPEDGVWALRLSSSGIWANTSPEAELFPALRPRRVGIALDYEGGTVTFTNAESQELIYTFTATFTRRLVPFLWLKWPGTRLLLRP
# modifications: lentiviral expression
# notes: as for B2
# System: coxsackievirus B3 (CVB3-GFP)
# Format: cell-based
# Conditions: HeLa cells, replicate R1; for Percent Infected R1: GFP-positive cells within RFP-positive gate
Molecule,Percent Infected R1 [%],Z score R1
B1,55.3,−0.424
B2,68,−0.262
B3,62.2,−0.336
B4,60.7,−0.355
B5,58.4,−0.384
B6,69.5,−0.243
B7,49.3,−0.5
